Data reported in patent US20240035010, “COMPOSITIONS COMPRISING A VARIANT POLYPEPTIDE AND USES THEREOF” (Arbor Biotechnologies, Inc., published 2024).

Target: T1, variant nuclease SEQ ID NO: 53 (P14R, D32R, I61R, E311R, T338G, E736G)
T1 chain: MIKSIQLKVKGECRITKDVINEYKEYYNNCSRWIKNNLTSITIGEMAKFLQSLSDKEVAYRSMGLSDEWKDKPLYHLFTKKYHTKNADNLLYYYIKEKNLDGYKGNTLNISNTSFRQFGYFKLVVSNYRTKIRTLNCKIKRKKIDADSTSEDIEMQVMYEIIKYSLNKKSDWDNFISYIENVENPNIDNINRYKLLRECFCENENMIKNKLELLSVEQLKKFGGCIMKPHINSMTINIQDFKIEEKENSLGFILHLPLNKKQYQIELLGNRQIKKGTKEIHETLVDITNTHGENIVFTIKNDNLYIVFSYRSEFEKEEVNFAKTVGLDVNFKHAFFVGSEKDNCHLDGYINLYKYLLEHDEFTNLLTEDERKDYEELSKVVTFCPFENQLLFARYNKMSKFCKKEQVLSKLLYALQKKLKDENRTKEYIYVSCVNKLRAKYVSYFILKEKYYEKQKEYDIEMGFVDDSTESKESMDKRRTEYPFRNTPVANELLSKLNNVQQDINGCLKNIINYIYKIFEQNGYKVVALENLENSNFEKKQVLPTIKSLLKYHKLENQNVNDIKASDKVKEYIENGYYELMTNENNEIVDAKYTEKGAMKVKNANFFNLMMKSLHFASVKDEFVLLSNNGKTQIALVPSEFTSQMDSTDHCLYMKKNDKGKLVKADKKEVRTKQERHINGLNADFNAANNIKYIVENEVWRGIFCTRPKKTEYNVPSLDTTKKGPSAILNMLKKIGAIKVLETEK
Experiment: cell_activity; nearly 0.6; HEK293T; PAM 5'-TTTG-3'
Conditions: tags: pcDNA3.1 expression
Description: Approximately 16 hours prior to transfection, 25,000 HEK293T cells in DMEM/10% FBS+Pen/Strep (D10 media) were plated into each well of a 96-well plate. On the day of transfection, the cells were 70-90% confluent. For each well to be transfected, a mixture of Lipofectamine 2000™ and Opti-MEM™ was prepared and incubated at room temperature for 5 minutes (Solution 1). After incubation, the Lipofectamine 2000™:Opti-MEM™ mixture was added to a separate mixture containing nuclease plasmid, RNA guide plasmid, and Opti-MEM™ (Solution 2). In the case of negative controls, the RNA guide plasmid was not included in Solution 2. Solutions 1 and 2 were mixed by pipetting up and down, then incubated at room temperature for 25 minutes. Following incubation, the Solution 1 and 2 mixture was added dropwise to each well of a 96-well plate containing the cells. Approximately 72 hours post transfection, cells were trypsinized by adding TrypLE™ to the center of each well and incubating at 37° C. for approximately 5 minutes. D10 media was then added to each well and mixed to resuspend cells. The resuspended cells were centrifuged at 500 g for 10 minutes to obtain a pellet, and the supernatant was discarded. The cell pellet was then resuspended in QuickExtract™ buffer (Lucigen®), and cells were incubated at 65° C. for 15 minutes, 68° C. for 15 minutes, and 98° C. for 10 minutes. […]

B1: VEGFA_T1 crRNA ; VEGFA_T1 target (ssRNA ; dsDNA)
RNA: CCUGUUGUGAAUACUCUUUUAUAGGUAUCAAACAACUCCUGGUGAAAGGCAGCCCU
DNA 1: TCCTGGTGAAAGGCAGCCCT
DNA 2: AGGGCTGCCTTTCACCAGGA
activity: ~0.6 indel ratio
